From US20250222136A1, “GENE EDITING SYSTEM FOR TREATING USHER SYNDROME” (GenKOre, Inc., priority 2022, published 2025)

B1: Canonical sgRNA: canonical (wild-type, full length) single guide RNA for Cas12f1, SEQ ID NO: 177 (nucleic acid)
guide: CUUCACUGAUAAAGUGGAGAACCGCUUCACCAAAAGCUGUCCCUUAGGGGAUUAGAACUUGAGUGAAGGUGGGCUGCUUGCAUCAGCCUAAUGUCGAGAAGUGCUUUCUUCGGAAAGUAACCCUCGAAACAAAUUCAUUUUUCCUCUCCAAUUCUGCACAAGAAAGUUGCAGAACCCGAAUAGACGAAUGAAGGAAUGCAACNNNNNNNNNNNNNNNNNNNN
modifications: Canonical sgRNA for Cas12f1; misc_feature 203..222 n is a, c, g or u
B2: MS3-3/MS4-3: MF-based engineered sgRNA, SEQ ID NO: 347 (nucleic acid)
guide: ACCGCUUCACCAAAAGCUGUCCCUUAGGGGAUUAGAACUUGAGUGAAGGUGGGCUGCUUGCAUCAGCCUAAUGUCGAGAAGUGCUUUCUUCGGAAAGUAACCCUCGAAACAAAGAAAGGAAUGCAACNNNNNNNNNNNNNNNNNNNN
modifications: Mature form sgRNA with modification of MS3-3/MS4-3; misc_feature 128..147 n is a, c, g or u

What was measured:
[1] = test system: Target-1 (SEQ ID NO: 358), human endogenous DNA target site; assay: Indel efficiency of CWCas12f1 gene editing system with engineered gRNAs, target sequence 1; assay type: cell-based
Procedure: (§1) To this end, each of the modification site MS3 to MS5 in the canonical sgRNA was further subdivided into three sections (see FIG. 2A). By combining one or more of these modifications, engineered gRNAs (see Table 10 in Example 1.2.1) were produced, and the indel activity for each of them was tested. As target sequences for comparing the indel efficiency, two types of human endogenous DNA target sites comprising the PAM sequence recognized as the cleavage site by the CWCas12f1 protein were identified and used, and the specific nucleotide sequences are provided in Table 12 below.
(§2) Next, to obtain a highly efficient engineered single guide RNA for the CWCas12f1 protein, 5′-[…]uuagGGGAUUA […]gaaaGAAUGAAGGAAUGCAA […]-3′ (SEQ ID NO: 337), which is a mature form (hereinafter referred to as ‘MF’) sgRNA, and engineered gRNAs having partial modifications in the nucleotide sequence of the MF sgRNA were produced (see Table 11), and the indel efficiency of the CWCas12f1 gene editing system caused by them was measured.
(§3) Meanwhile, the comparative experiment of indel efficiency of the engineered Cas12f1 proteins in Examples 1.2.2 and 1.2.3 was performed as follows.
(§4) One day before transfection, HEK293T cells, which had been grown in 24-well plates to 80-90% confluency (based on 100φ dishes), were diluted 1/100 and passaged to prepare a volume of 500 μl. A total of 2 μg of DNA (vector+sgRNA transcription cassette targeting DY10) was used per transfection well. The experiment was repeated twice for each group. A transfection mixture was prepared which contains 1.5 μg of plasmid encoding the wild-type Cas12f1 or the engineered Cas12f1, 0.5 μg of the sgRNA transcription cassette, 200 μl of DMEM (excluding FBS and antibiotics), and 6 μl of FuGENE (Promega) reagent.
(§5) DNA and DMEM containing FuGENE reagent were mixed and vortexed, and then incubated for 15 minutes. 200 μl of the thus prepared transfection mixture was used to treat the cells prepared in a 24-well plate, and incubated at 37° C. […]
(§6) Indel frequency was calculated using MAUND provided at ┌https://github.com/ibs-cge/maund┘.

[2] = test system: Target-2 (SEQ ID NO: 359), human endogenous DNA target site; assay: Indel efficiency of CWCas12f1 gene editing system with engineered gRNAs, target sequence 2; assay type: cell-based
Procedure: as §1, §2, §3, §4, §5, §6

Row | Molecule | indel efficiency ([1]; CWCas12f1 protein, Target-1 (SEQ ID NO: 358), gRNAs engineered from canonical sgRNA, FIG. 3A) | indel efficiency ([2]; CWCas12f1 protein, Target-2 (SEQ ID NO: 359), gRNAs engineered from canonical sgRNA, FIG. 3B) | indel efficiency ([1]; CWCas12f1, Target-1, MF-based gRNA with U-rich tail (U4AU4) added to the 3′-end (MS2), FIG. 4B) | indel efficiency ([1]; CWCas12f1, Target-1, gRNAs engineered from mature form (MF) sgRNA, no U-rich tail, FIG. 4A) | indel efficiency ([2]; CWCas12f1, Target-2, MF-based gRNA with U-rich tail (U4AU4) added to the 3′-end (MS2), FIG. 4D) | indel efficiency ([2]; CWCas12f1, Target-2, gRNAs engineered from mature form (MF) sgRNA, no U-rich tail, FIG. 4C)
1 | B1 | did not cause cleavage of the target strand | did not cause cleavage of the target strand |  |  |  | 
2 | B2 |  |  | about 60% | about 40% | about 50% | about 20%
